Measurements from EP4786494A1 (Nanjing Leads Biolabs Co., Ltd., dated 2026).

Key:
[1] = molecular target: T1, human FGFR2-his protein (huFGFR2-his) (human); assay: BLI (ForteBio Octet RED96e), antibody on AHC sensor, FGFR2-his in solution, 1:1 model
T1 construct: Extracellular region of human FGFR2 (NP_001138385.1) with a 6xHis tag; also called human FGFR2 extracellular protein
T1 chain: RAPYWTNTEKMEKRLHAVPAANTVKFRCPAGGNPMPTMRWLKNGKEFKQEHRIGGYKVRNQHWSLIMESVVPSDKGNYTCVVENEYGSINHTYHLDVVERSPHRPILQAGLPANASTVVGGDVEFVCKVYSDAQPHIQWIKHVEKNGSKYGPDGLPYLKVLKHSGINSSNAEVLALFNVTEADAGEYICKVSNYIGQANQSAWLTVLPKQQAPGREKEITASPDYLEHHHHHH

[2] = molecular target: T2, cynomolgus FGFR2-his protein (cynoFGFR2-his) (cynomolgus); assay: BLI (ForteBio Octet RED96e), antibody on AHC sensor, cynomolgus FGFR2-his in solution, 1:1 model
T2 construct: Extracellular region of cynomolgus FGFR2b (XP_028682763.1) with a 6xHis tag; also called cynomolgus FGFR2 extracellular protein
T2 chain: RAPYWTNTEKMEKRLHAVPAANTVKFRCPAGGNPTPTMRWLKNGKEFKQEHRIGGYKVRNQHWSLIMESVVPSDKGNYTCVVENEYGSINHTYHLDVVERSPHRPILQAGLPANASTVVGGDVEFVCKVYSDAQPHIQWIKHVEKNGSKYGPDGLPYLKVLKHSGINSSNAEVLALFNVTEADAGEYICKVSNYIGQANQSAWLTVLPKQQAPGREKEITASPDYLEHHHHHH

B1: humanized monoclonal antibody huG11B8-5 (antibody, human IgG1, kappa, V domains shown)
VH: EVQLVQSGAEVKKPGATVKISCKASGYTFTDYNMDWVQQAPGKGLEWMGDINPKNGETFYAEKFQGRVTLTVDRSTNTAYMELSSLRSEDTAVYFCAKRDLNWYFDYWGQGTTVTVSS
VL: DIQMTQSPSSLSASVGDRVTITCQASDHINNWLAWYQQKPGKAPKLLISGATSLETGVPSRFSGSGSGKDYTFTISSLQPEDIATYYCQQYWSTPWTFGGGTKVEIKR
notes: huG11B8H-3 + huG11B8L-1; human IgG1 / kappa
**Q.** Which Kd [1] does the source give for B1 here?
**A.** The Kd was 2.62 nM.

**Q.** And the koff [1]?
**A.** Its koff is 0.000431 s⁻¹.

**Q.** And the kon [1]?
**A.** Its kon is 164000 M⁻¹ s⁻¹.

**Q.** What about the Kd [2] of the same binder?
**A.** Its Kd is 1.62 nM.

**Q.** And the koff [2]?
**A.** Its koff is 0.000866 s⁻¹.

**Q.** What about the kon [2] of the same binder?
**A.** The kon was 536000 M⁻¹ s⁻¹.
